Experimental data published in patent US12042530B2, “Target peptides for immunotherapy and diagnostics” (University of Virginia Patent Foundation, priority 2012, dated 2024).
Non-standard residues stand in square brackets, D forms with d. No end group written: not given here. pT = C[C@@H](OP(=O)(O)O)[C@H](N)C(=O)O; pS = N[C@@H](COP(=O)(O)O)C(=O)O

Legend:
HLA-B*0702 = biological target: T1, HLA-B*0702 (Homo sapiens, UniProt P01889); assay: Phosphopeptides presented in association with class I molecules (HLA-B*0702) on cancer cells: melanoma and/or leukemia; set-up: key: Melanoma (M); Leukemia (L); L/M: Melanoma (M) and/or Leukemia (L); settings: cancer type on which the HLA-B*0702 phosphopeptide is presented
T1 construct: endogenous in cells; host or cells: melanoma and/or leukemia cells

[1] = biological target: T2, HLA-B*0702 (HLA-B7) peptide complexes (Homo sapiens, UniProt P01889); assay: HLA-B*0702 phosphopeptides associated with leukemia samples (isolation of HLA-associated peptides); settings: AML1
T2 construct: endogenous in cells; host or cells: JY B-lymphoblastoid line; primary ALL, CLL, HCL, AML samples; bone marrow; healthy B and T cells
Method in brief: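 Class I HLA-A2 and HLA-B7 complexes were immunoaffinity-purified (BB7.2 or MEL antibodies on protein A) from CHAPS lysates of ~1.2-14×10^9 cells, using phosphatase and protease inhibitors. Sources were Ficoll-purified (>98%) CLL, MCL, ALL and AML cells, healthy splenic T/B cells and JY cells. Peptides were eluted with 10% acetic acid.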

[2] = biological target: T3, HLA-A*0201 (HLA-A2) peptide complexes (Homo sapiens, UniProt P04439, D140Y/D185E/D98H/E176V/E277Q/G131W/G231S/I119V/I121R/I166T/I218V/L300P/L318F/N151K/N90K/P208A/P217A/Q86G/Q94H/R138H/R169H/T345S); assay: HLA-A*0201 phosphopeptides associated with leukemia samples (isolation of HLA-associated peptides); settings: for Copies/cell class, JY: EBV transformed B lymphoblastoid cell line JY; for Copies/cell class, AML1: acute myeloid leukemia sample AML1; for Copies/cell class, CLL1: chronic lymphocytic leukemia sample CLL1; for Copies/cell class, B Cell: healthy B cells; for Copies/cell class, T Cell: healthy T cells; for Copies/cell class, MCL: mantle cell lymphoma sample
T3 construct: endogenous in cells; host or cells: JY B-lymphoblastoid line; primary CLL, MCL, AML, ALL samples; healthy splenic T and B cells
Text: To identify naturally processed tumor-associated phosphopeptides, HLA-A*0201 (HLA-A2) and HLA-B*0702 (HLA-B7) peptide complexes from four (4) chronic lymphocytic leukemia (CLL) tumor samples, a mantle cell lymphoma sample (MCL), one acute lymphoblastic leukemia (ALL), and an acute myeloid leukemia (AML) sample, in addition to healthy splenic T and B-cells and the cultured lymphoblastoid cell line JY were isolated. These efforts yielded 10 HLA-A2-restricted and 86 HLA-B7-restricted phosphopeptide antigens (see Tables 6 and 7).
All cell lines were grown at 37° C. with 5% CO2 in growth medium consisting of RPMI 1640 supplemented with 10% FCS and two mM L-glutamine. Blood or leukapheresis samples were taken from patients with high-burden leukemia in heparin. Tumor cells were recovered by layering the blood over density gradient (Ficoll) and collecting the tumor layer following centrifugation. The tumor was washed in tris-buffered saline (TBS). The purity of the tumor was assessed using flow cytometry and was >98% pure in all cases. For healthy T and B-cell populations, a normal spleen sample processed and tonsil sample was collected and lymphocytes released through mechanical disruption. Mononuclear cells were isolated using a density gradient and 10^9 T cells isolated using anti-CD19 or anti-CD3 microbeads (Miltenyi Biotec Inc., Auburn, California, United States of America) with purity >98% were obtained. Bone marrow sample was obtained from an elective orthopedic procedure and red cell-depleted using hypotonic lysis. This sample was not processed further.
Class I MHC molecules were immunoaffinity purified from the JY cell line or from primary tumor samples, and their associated peptides were extracted as previously described in Zarling et al., 2006. Approximately 1.2-14×10^9 cells were lysed in a solution containing 20 mM Tris-HCl (pH 8.0), 150 mM NaCl, 1% CHAPS, one mM PMSF, five μg/mL aprotinin, 10 μg/mL leupeptin, 10 μg/mL pepstatin A, 1 μg/ml calyculin A, and phosphatase inhibitor (cocktails I and II; Sigma-Aldrich). The mixture was subjected to centrifugation and the resulting supernatant was passed over protein A sepharose pre-loaded with the HLA-A2-specific antibody BB7.2 or HLA-B7-specific antibody MEL Peptides were eluted from the purified class I MHC molecules with 10% acetic acid.

PBMCs = assay: Memory T cell response, IFNγ ELISpot, healthy A2 positive donors; assay type: cell-based, human; settings: for Day 7 ELISpot, donor alpha: healthy A2 positive donor alpha; for Day 7 ELISpot, donor one: healthy A2 positive donor one

Substance | L/M (HLA-B*0702) | Copies/cell class, AML1 [1] | Copies/cell class, CLL2 [2] | Copies/cell class, CLL3 [2] | Copies/cell class, CLL4 [2] | Copies/cell class, JY [2] | Copies/cell class, AML1 [2] | Copies/cell class, CLL1 [2] | Copies/cell class, B Cell [2] | Copies/cell class, T Cell [2] | Copies/cell class, MCL [2] | Day 7 ELISpot, donor alpha (PBMCs) | Day 7 ELISpot, donor one (PBMCs) | Day 7 ELISpot, donor three (PBMCs; healthy A2 positive donor three)
392 (YQR[pS]FDEVEGVF; listed as Homo sapiens) [compound 392] | L | 2 (2 indicates 1-5 copies/cell) |  |  |  |  |  |  |  |  |  |  |  | 
436 (KAKSPAPGL; SITE (1)..(9): One or more of the listed amino acids can be phosphorylated as set forth in the Tables; listed as Homo sapiens) [compound 436] |  |  | 1 (1 indicates <1 copy/cell) | 0 | 0 | 0 | 0 | 0 | 0 | 0 | 0 |  |  | 
440 (KLIDRTESL; SITE (1)..(9): One or more of the listed amino acids can be phosphorylated as set forth in the Tables; listed as Homo sapiens) [compound 440] |  |  | 2 (2 indicates 1-5 copies/cell) | 1 (1 indicates <1 copy/cell) | 1 (1 indicates <1 copy/cell) | 2 (2 indicates 1-5 copies/cell) | 0 | 2 (2 indicates 1-5 copies/cell) | 0 | 0 | 0 |  |  | 
444 (KMDSFLDMQL; SITE (1)..(10): One or more of the listed amino acids can be phosphorylated as set forth in the Tables; listed as Homo sapiens) [compound 444] |  |  | 0 | 0 | 1 (1 indicates <1 copy/cell) | 2 (2 indicates 1-5 copies/cell) | 0 | 0 | 0 | 0 | 0 |  |  | 
451 (RQASIELPSM; SITE (1)..(10): One or more of the listed amino acids can be phosphorylated as set forth in the Tables; listed as Homo sapiens) [compound 451] |  |  | 2 (2 indicates 1-5 copies/cell) | 1 (1 indicates <1 copy/cell) | 1 (1 indicates <1 copy/cell) | 4 (4 indicates >25 copies per cell) | 1 (1 indicates <1 copy/cell) | 2 (2 indicates 1-5 copies/cell) | 2 (2 indicates 1-5 copies/cell) | 2 (2 indicates 1-5 copies/cell) | 1 (1 indicates <1 copy/cell) |  |  | 
456 (RQLSSGVSEI; SITE (1)..(10): One or more of the listed amino acids can be phosphorylated as set forth in the Tables; listed as Homo sapiens) [compound 456] |  |  | 0 | 1 (1 indicates <1 copy/cell) | 0 | 0 | 0 | 0 | 0 | 0 | 0 |  |  | 
457 (RTFSPTYGL; SITE (1)..(9): One or more of the listed amino acids can be phosphorylated as set forth in the Tables; listed as Homo sapiens) [compound 457] |  |  | 0 | 1 (1 indicates <1 copy/cell) | 0 | 0 | 0 | 0 | 0 | 0 | 0 |  |  | 
459 (RVASPTSGV; SITE (1)..(109: One or more of the listed amino acids can be phosphorylated as set forth in the Tables; listed as Homo sapiens) [compound 459] |  |  | 1 (1 indicates <1 copy/cell) | 0 | 0 | 0 | 0 | 1 (1 indicates <1 copy/cell) | 0 | 0 | 1 (1 indicates <1 copy/cell) |  |  | 
460 (SMTRSPPRV; SITE (1)..(9): One or more of the listed amino acids can be phosphorylated as set forth in the Tables; listed as Homo sapiens) [compound 460] |  |  | 0 | 1 (1 indicates <1 copy/cell) | 0 | 0 | 0 | 0 | 0 | 0 | 0 |  |  | 
464 (VMIGSPKKV; SITE (1)..(9): One or more of the listed amino acids can be phosphorylated as set forth in the Tables; listed as Homo sapiens) [compound 464] |  |  | 0 | 0 | 0 | 0 | 0 | 0 | 0 | 0 | 1 (1 indicates <1 copy/cell) |  |  | 
IMDRtPEKL (IMDR[pT]PEKL; listed as Homo sapiens) [SEQ ID NO: 398] |  |  |  |  |  |  |  |  |  |  |  | +++ (>100 spots) | + (3-24 spots) | 
RTFpSPTYGL (RTF[pS]PTYGL; listed as Homo sapiens) [SEQ ID NO: 457] |  |  |  |  |  |  |  |  |  |  |  |  | + (3-24 spots) | + (3-24 spots)
TPRVTGGGAM (Artificially synthesized cytomegalovirus peptide) [TPR (CMV), cytomegalovirus (CMV) peptide, reference compound] |  |  |  |  |  |  |  |  |  |  |  | +++ (>100 spots) | + (3-24 spots) | 
